Laboratory results as given in paper PMC3461508.

Target: mitochondrial ribosome (S. cerevisiae (endogenous in W303))
Experiment: co-sedimentation

Binder	percent bound to the ribosome [%]
Cbp6 (natural protein) MSSSQVVRDSAKKLVNLLEKYPKDRIHHLVSFRDVQIARFRRVAGLPNVDDKGKSIKEKKPSLDEIKSIINRTSGPLGLNKEMLTKIQNKMVDEKFTEESINEQIRALSTIMNNKFRNYYDIGDKLYKPAGNPQYYQRLINAVDGKKKESLFTAMRTVLFGK	20
Cbp3 (natural protein) ETAQDSPELLAKSSHLNSKPLDVSNKAPVKTAQNKIPLAHSKYESSKYELPKWKEALGELVIRAFHLDMDRVRAGPVAGSYYYKICKEQGLQYEDEPLSETAKYFYEDLKLPRTFSQWFQITVLHEWILFVRMRAMPFKYGRNYQQKLVDRTFSDIELRLFEEMKVNSGRIADQYLKDFNTQLRGAIFAYDEGFATDDGTLATAVWRNLFGGRKNIDMVHLESVVRYIYSQLYVLSRLSDREFATGKFKFVPPGVKVEKLTPKQEEELKAKTIAKYEALDKDPKTLPSERSRLSYTN	20
